Assay results as given in publication PMC9757036.

Molecular target: DNA polymerase alpha catalytic domain (hPolα, hPolαCD) (human, UniProt P09884 335-1257)
Experiment: BLI

DNA polymerase alpha catalytic domain (hPolα, hPolαCD), sequence (P09884 335-1257): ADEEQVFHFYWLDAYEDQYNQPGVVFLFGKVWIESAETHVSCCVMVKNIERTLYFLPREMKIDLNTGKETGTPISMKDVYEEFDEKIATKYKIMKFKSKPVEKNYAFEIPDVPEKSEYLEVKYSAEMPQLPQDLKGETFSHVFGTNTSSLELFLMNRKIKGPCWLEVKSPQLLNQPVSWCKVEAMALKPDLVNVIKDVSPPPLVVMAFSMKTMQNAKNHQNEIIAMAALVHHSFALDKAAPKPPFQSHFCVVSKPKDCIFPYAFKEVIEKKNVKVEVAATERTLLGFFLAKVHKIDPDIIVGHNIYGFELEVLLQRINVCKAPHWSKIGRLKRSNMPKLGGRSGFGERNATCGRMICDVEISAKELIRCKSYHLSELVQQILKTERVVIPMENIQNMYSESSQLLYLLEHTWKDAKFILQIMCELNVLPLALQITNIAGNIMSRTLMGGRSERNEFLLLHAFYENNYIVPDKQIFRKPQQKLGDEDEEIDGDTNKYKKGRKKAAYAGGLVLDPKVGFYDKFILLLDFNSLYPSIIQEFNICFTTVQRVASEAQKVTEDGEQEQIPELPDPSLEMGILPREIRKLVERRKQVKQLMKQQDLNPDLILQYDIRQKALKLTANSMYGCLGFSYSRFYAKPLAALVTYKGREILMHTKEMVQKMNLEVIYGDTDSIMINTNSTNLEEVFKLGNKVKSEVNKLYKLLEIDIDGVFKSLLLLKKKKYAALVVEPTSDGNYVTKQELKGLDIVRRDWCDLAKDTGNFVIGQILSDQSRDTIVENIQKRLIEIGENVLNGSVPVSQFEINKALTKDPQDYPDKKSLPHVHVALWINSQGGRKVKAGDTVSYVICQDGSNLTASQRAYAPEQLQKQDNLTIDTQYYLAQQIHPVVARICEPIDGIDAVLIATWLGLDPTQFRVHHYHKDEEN

B1: T6:P12 (R8-D3) (mixed)
DNA: AATACATAAGCGCTCCAGGCAAT
RNA: GCCUGGAGCGC
modifications: primer nt 1-8 RNA, nt 9-11 DNA, 3' ddC
  Kd: 11.3 ± 0.69 nM

B2: T7:P12 (R8-D3) (mixed)
DNA: AATACATAATCGCTCCAGGCAAT
RNA: GCCUGGAGCGC
modifications: primer nt 1-8 RNA, nt 9-11 DNA, 3' ddC
  Kd: 198 ± 9.2 nM

B3: T8:P12 (R8-D3) (mixed)
DNA: AATACATAAACGCTCCAGGCAAT
RNA: GCCUGGAGCGC
modifications: primer nt 1-8 RNA, nt 9-11 DNA, 3' ddC
  Kd: 730 ± 51 nM

B4: T7:P9 (D11) (dsDNA)
DNA 1: AATACATAATCGCTCCAGGCAAT
DNA 2: GCCTGGAGCGC
modifications: primer 3' ddC
  Kd: 1130 ± 94 nM

B5: T6:P9 (D11) (dsDNA)
DNA 1: AATACATAAGCGCTCCAGGCAAT
DNA 2: GCCTGGAGCGC
modifications: primer 3' ddC
  Kd: 146 ± 17 nM

B6: T8:P9 (D11) (dsDNA)
DNA 1: AATACATAAACGCTCCAGGCAAT
DNA 2: GCCTGGAGCGC
modifications: primer 3' ddC
  Kd: 1880 ± 33 nM
